Results from article PMC4277747 (Journal of the American Chemical Society, 2014).

Molecular target: the molecule itself
Experiment: AUC

Protein | stoichiometry N
KEEKQIEKELKQIEKELQAIEWRLAQLRKRLQALRKRKAQKRE (designed binder) [APHi fused to maltose binding protein (MBP)] | > 2
KRKKQKRKRAKQLRKRLQALEWQLAQIRKELQAAEKEEAQIEE (designed binder) [APHiii (APH3) fused to maltose binding protein (MBP)] | 2
KQLKQIEKRLKQIEKRLQAKEWEKAQLRKELQALRKKLAQLRE (designed binder) [APHvi (APH4) fused to maltose binding protein (MBP)] | 2
KEKKQLRKELKQLEKELQALRWRLAQIEKRLQAIRKRLAQKEE (designed binder) [APHiv fused to maltose binding protein (MBP)] | > 2

Molecular target: the molecule itself
Experiment: AUC
Remark: another data set of the same source

Protein | stoichiometry N
KQLEKELKQLEKELQAIEKQLAQLQWKAQARKKKLAQLKKKLQA (designed binder) [APH fused to maltose binding protein (MBP)] | 2

Molecular target: the molecule itself
Experiment: AUC
Remark: another data set of the same source

Protein | MW (global fit)/MW (calc., expected dimer mass)
KEEKQIEKELKQIEKELQAIEWRLAQLRKRLQALRKRKAQKRE (designed binder) [APHi fused to maltose binding protein (MBP)] | 1.7
KRKKQKRKRAKQLRKRLQALEWQLAQIRKELQAAEKEEAQIEE (designed binder) [APHiii (APH3) fused to maltose binding protein (MBP)] | 0.94
KQLKQIEKRLKQIEKRLQAKEWEKAQLRKELQALRKKLAQLRE (designed binder) [APHvi (APH4) fused to maltose binding protein (MBP)] | 0.96
KEKKQLRKELKQLEKELQALRWRLAQIEKRLQAIRKRLAQKEE (designed binder) [APHiv fused to maltose binding protein (MBP)] | 1.23
